Assay results published in article PMC12372851.

Target: 3Flag-Lef1 (zebrafish) (UniProt Q9W7C0)
Assay: EMSA
Conditions: 100 mM Hepes pH 7.5, 100 mM NaCl, 50 mM KCl, 1 mM DTT, 1 mM EDTA, 5% glycerol, 30 min at 25 °C

UniProt Q9W7C0, sequence (Q9W7C0 entry or part of it): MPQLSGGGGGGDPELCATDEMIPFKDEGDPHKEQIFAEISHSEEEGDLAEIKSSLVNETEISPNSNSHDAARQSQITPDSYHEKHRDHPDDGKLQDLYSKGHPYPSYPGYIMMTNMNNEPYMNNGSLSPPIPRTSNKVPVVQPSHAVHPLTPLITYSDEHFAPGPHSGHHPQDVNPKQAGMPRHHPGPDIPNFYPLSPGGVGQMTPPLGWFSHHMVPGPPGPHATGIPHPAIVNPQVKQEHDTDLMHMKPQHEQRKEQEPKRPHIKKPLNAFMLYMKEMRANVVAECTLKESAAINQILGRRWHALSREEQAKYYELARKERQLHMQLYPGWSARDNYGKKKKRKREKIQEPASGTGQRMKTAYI

Sequence: CACCACTGATAAAAACTATTAAAGATCAGTCTGGGAGTCACTACTTTACTACTTGGTTTCATCAAAGTATTAAAAAAAGTGATGCGCTGCCTTCTTTAAATGCGTTCAC (double strand) [eya2 promoter WT EMSA probe]
- binding: binds
